The source of these data is paper PMC11536449.

Like-named read-outs stand apart in the source and are kept apart here.

Data set [1] addresses T1, CmRSM1-GST (Cucumis melo (melon), UniProt A0A1S3CDK8 1-116).
T1 sequence: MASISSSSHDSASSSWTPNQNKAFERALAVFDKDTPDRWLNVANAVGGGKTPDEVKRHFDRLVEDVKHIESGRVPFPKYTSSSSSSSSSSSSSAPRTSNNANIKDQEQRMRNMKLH
The data set is described as follows: EMSA. (Mobility shift assays separate free from complexed probe on a gel.)

The target of data set [2] is T1, CmRSM1-GST. The data set is described as follows: EMSA. This is another data set of the same source.

B1: P2 probe (CmBr promoter, MYB and MBS motifs) (dsDNA)
DNA 1: GACAACAAATTTATAAGTAATTGTTCAACCAACTGAAAACGAGAAAAGTAAATATATCT
DNA 2: AGATATATTTACTTTTCTCGTTTTCAGTTGGTTGAACAATTACTTATAAATTTGTTGTC
B1: in data set [1], the binding result is recorded as “no binding”.

B2: P1 probe (CmBr promoter, Myb motif) (dsDNA)
DNA 1: ACATTTACTTTTAGATGAAATTGTAACAGTTAGCTAAGTCGTTCACTTCGTTGAAATTA
DNA 2: TAATTTCAACGAAGTGAACGACTTAGCTAACTGTTACAATTTCATCTAAAAGTAAATGT
Regarding B2, in data set [2], the binding result is given as “binds”.

B3: P3 probe (CmBr promoter, MRE motif) (dsDNA)
DNA 1: ACTTAGTTTTGAGATCAAATAACTCCTTAGGTTAGTTAATCATTCATTGATTCAATCAA
DNA 2: TTGATTGAATCAATGAATGATTAACTAACCTAAGGAGTTATTTGATCTCAAAACTAAGT
With B3, the binding result in data set [1] is “no binding”.
